As a reminder, the EC50 (read off the curve) is the midpoint of the concentration-response curve. One may read the Kd as a measure of binding affinity in units of concentration. Higher therefore signals weaker binding. As usually defined, the IC50 is the midpoint of a concentration-inhibition curve.

Assay [1] concerns the target T1, biotinylated recombinant human LAG-3 (human, UniProt P18627 23-450, limits assumed, biotinylated).
T1 construct: also called soluble recombinant human LAG-3 protein
T1 sequence (looked up): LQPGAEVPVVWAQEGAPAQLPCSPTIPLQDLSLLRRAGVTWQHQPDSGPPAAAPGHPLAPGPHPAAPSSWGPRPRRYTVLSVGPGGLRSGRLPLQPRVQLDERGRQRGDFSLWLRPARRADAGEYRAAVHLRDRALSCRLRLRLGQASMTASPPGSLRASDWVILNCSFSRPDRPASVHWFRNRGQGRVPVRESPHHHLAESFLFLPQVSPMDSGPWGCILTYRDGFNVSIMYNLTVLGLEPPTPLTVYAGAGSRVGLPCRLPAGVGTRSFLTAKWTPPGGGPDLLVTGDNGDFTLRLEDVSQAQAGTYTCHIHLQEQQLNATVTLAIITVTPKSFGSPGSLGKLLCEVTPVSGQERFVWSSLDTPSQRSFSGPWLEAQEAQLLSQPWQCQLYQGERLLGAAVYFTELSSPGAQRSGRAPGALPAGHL
Briefly: ELISA, antibody coated on the plate, biotinylated recombinant human LAG-3 titrated (x axis, nM), streptavidin detection, absorbance 450-570 nm. (In general: An ELISA detects its analyte on a solid surface through an enzyme-linked reagent.)

Assay [2] concerns the target T2, human LAG-3 (Bio-Layer Interferometry; construct not stated) (human, UniProt P18627 23-450, limits assumed).
T2 sequence (looked up): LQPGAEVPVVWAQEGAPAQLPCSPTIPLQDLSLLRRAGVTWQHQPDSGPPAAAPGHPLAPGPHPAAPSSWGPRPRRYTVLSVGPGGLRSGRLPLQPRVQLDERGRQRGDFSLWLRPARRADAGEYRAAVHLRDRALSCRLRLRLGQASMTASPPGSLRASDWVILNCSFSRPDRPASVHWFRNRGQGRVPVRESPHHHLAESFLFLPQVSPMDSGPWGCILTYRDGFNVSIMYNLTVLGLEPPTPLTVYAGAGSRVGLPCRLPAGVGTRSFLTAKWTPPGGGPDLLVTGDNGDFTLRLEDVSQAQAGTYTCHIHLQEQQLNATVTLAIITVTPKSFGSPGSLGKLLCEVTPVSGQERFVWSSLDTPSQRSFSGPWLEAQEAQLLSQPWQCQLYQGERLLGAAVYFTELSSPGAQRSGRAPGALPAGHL
In words: Bio-Layer Interferometry. Background: BLI is a label-free optical method that tracks binding on a fibre tip over time.

Assay [3] has as its target T3, mouse LAG-3 coupled to human Fc (mouse, UniProt Q61790 24-442, limits assumed).
T3 construct: also called murine LAG-3; Fc-coupled murine LAG-3; not shown: human Fc
T3 sequence (looked up): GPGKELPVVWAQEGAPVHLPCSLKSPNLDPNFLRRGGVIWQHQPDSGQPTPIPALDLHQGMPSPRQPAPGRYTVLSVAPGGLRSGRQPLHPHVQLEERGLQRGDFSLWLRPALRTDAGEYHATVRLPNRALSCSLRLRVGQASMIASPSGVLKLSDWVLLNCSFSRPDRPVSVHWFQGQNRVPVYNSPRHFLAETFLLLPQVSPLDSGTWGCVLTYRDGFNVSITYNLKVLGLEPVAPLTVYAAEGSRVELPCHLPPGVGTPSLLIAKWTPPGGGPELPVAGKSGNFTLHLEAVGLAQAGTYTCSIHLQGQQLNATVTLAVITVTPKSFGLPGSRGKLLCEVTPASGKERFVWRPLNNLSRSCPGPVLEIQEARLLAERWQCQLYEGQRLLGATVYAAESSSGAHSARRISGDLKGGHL
In words: ELISA, plate coated with mouse LAG-3-Fc, crude periplasmic Fab extract, anti-human Fab-HRP, absorbance 450-670 nm. On the procedure: After extensive washes in PBS Tween-20, crude periplasmic extracts from the induction were transferred into the ELISA wells in the presence of 7% milk in PBS. After 90 minutes at room temperature under agitation and extensive washes, a goat anti-human Fab antibody coupled to HRP was added. One hour la ter, plates were washed and TMB substrate was added. The reaction was stopped with 1M HCl and optical density was measured at 450 nm with a reference at 670 nm. Antibodies giving an absorbance >0.1 were selected as positive. A first clonality screening was performed by DNA fingerprinting; clonality was then confirmed by sequencing.

The target in assay [4] is T4, human LAG-3 coupled to phycoerythrin (human, UniProt P18627 23-450, limits assumed, coupled to phycoerythrin).
T4 construct: also called Labelled LAG-3
T4 sequence (looked up): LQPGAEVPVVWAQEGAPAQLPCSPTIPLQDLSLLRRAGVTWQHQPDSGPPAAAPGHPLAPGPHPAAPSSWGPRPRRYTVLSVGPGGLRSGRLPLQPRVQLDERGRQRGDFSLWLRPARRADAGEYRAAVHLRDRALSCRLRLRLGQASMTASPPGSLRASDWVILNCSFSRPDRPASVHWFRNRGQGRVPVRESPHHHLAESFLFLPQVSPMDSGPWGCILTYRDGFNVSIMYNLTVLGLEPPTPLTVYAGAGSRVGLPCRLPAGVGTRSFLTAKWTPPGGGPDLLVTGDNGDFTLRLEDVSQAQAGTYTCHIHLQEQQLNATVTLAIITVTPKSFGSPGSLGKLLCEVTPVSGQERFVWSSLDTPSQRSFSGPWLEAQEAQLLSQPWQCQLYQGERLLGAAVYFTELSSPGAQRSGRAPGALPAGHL
In words: blocking assay, flow cytometry: phycoerythrin-coupled human LAG-3 pre-incubated with Fab, then binding to MHC class II on Daudi cells. In general terms: Flow cytometry measures light scatter and fluorescence of single cells or particles in a stream.

In assay [5] the target is T4, human LAG-3 coupled to phycoerythrin. In words: flow cytometry; inhibition of binding of PE-coupled human LAG-3 to MHC class II on Daudi cells. The protocol:
Daudi cells were plated in 96-well plates and fixed/permeabilised in Fix/Perm buffer in the presence of anti-CD16/CD32 antibody. Premixes were added onto the Daudi cells and incubated for 30 minutes at 4° C. The cells were then washed three times in Perm/Wash buffer, resuspended in PBS and analysed by flow cytometry.

Assay [6] deals with T3, mouse LAG-3 coupled to human Fc. Briefly: ELISA, plate coated with mouse LAG-3 coupled to human Fc, Fab, absorbance 450-670 nm.

B1: anti-LAG-3 antibody clone G8 in IgG1 format (antibody, V domains shown)
VH: QVQLVQSGGGVVQPGRSLRLSCAASGFTFSSYAMHWVRQAPGKGLEWVAVISYDGSNKYYADSVKGRFTISRDNSKNTLYLQMNSLRAEDTAVYYCARDPDAANWGFLLYYGMDVWGQGTTVTVSS
VL: EIVLTQSPGTLSLSPGERATLSCTTSQSVSSTSLDWYQQKPGQAPRLLIYGASSRATGIPDRFSGSGSGTDFTLTISRLEPEDFAVYYCQQYGSSLLTFGGGTKVEIK
notes: IgG1 format; also called G8 IgG1
For the molecule B1, the “EC50 (read off the curve)” value in assay [1] was roughly 0.8 nM.

B2: anti-LAG-3 antibody clone G8 (format not stated) (antibody, V domains shown)
VH: QVQLVQSGGGVVQPGRSLRLSCAASGFTFSSYAMHWVRQAPGKGLEWVAVISYDGSNKYYADSVKGRFTISRDNSKNTLYLQMNSLRAEDTAVYYCARDPDAANWGFLLYYGMDVWGQGTTVTVSS
VL: EIVLTQSPGTLSLSPGERATLSCTTSQSVSSTSLDWYQQKPGQAPRLLIYGASSRATGIPDRFSGSGSGTDFTLTISRLEPEDFAVYYCQQYGSSLLTFGGGTKVEIK
notes: also called antibody G8
In turn, B2 gave a dissociation constant (Kd) in assay [2] of 0.7 nM.

B3: anti-LAG-3 antibody clone C2 Fab (Fab, V domains shown)
VH: QVQLVQSGGGVVQPGRSLRLSCAASGFTFSSYAMHWVRQAPGKGLEWVAVISYDGSNKYYADSVKGRFTISRDNSKNTLYLQMNSLRAEDTAVYYCARDPDAANWGFLLYYGMDVWGQGTTVTVSS
VL: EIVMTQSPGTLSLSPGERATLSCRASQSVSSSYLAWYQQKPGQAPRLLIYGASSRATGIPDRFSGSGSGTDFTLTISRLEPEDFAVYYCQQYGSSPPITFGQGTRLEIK
With B3, the binding result in assay [3] was “no binding”. In assay [4], the IC50 was 33 nM.

B4: anti-LAG-3 antibody clone G8 in IgG4 format (antibody, V domains shown)
VH: QVQLVQSGGGVVQPGRSLRLSCAASGFTFSSYAMHWVRQAPGKGLEWVAVISYDGSNKYYADSVKGRFTISRDNSKNTLYLQMNSLRAEDTAVYYCARDPDAANWGFLLYYGMDVWGQGTTVTVSS
VL: EIVLTQSPGTLSLSPGERATLSCTTSQSVSSTSLDWYQQKPGQAPRLLIYGASSRATGIPDRFSGSGSGTDFTLTISRLEPEDFAVYYCQQYGSSLLTFGGGTKVEIK
notes: also called G8 IgG4
Turning to B4, the “EC50 (read off the curve)” value in assay [1] is roughly 0.4 nM.

B5: anti-LAG-3 antibody clone G8 Fab (Fab, V domains shown)
VH: QVQLVQSGGGVVQPGRSLRLSCAASGFTFSSYAMHWVRQAPGKGLEWVAVISYDGSNKYYADSVKGRFTISRDNSKNTLYLQMNSLRAEDTAVYYCARDPDAANWGFLLYYGMDVWGQGTTVTVSS
VL: EIVLTQSPGTLSLSPGERATLSCTTSQSVSSTSLDWYQQKPGQAPRLLIYGASSRATGIPDRFSGSGSGTDFTLTISRLEPEDFAVYYCQQYGSSLLTFGGGTKVEIK
Consider B5, for which the binding result in assay [3] is reported as “no binding”. In addition, the IC50 in assay [4] is 12 nM.

B6: anti-LAG-3 antibody clone 1G11 Fab (Fab, V domains shown)
VH: QLQLQESGGDVVQPGRSLRLSCAASGFTFSSYGMHWVRQAPGKGLEWVAVISYDGSNKYYADSVKGRFTISRDNSKNTLYLQMNSLRAEDTAVYYCARLPGWGAYAFDIWGQGTMVTVSS
VL: EIVLTQSPGTLSLSPGERATLSCRASQSVSSSFLAWYQQKPGQAPRLLIYGASSRATGIPDRFSGSGSGTDFTLTISRLEPEDFAVYYCQQYGPSITFGGGTKVEIK
In the case of B6, in assay [5], the IC50 turned out to be 378 nM. Moreover, in assay [6], the binding result was “binds”.

B7: anti-LAG-3 antibody clone F5 in IgG1 format (antibody, V domains shown)
VH: EVQLVQSGAEVKKPGASVKVSCKVSGYTLTELSMHWVRQTPGKGLEWMGGFDPEDGETIYAQKFQGRVTMTEDTSTDTAYMELSSLRSEDTAVYYCATTWFGELYYWGQGTLVTVSS
VL: ETTLTQSPGTLSLSPGERATLSCRASQSVSSGYLAWYQQKPGQAPRLLIYDASSRATGIPDRFSGSGSGADFTLTISRLQPEDFAVYYCQQYGSSRPGLTFGGGTRVEIK
notes: IgG1 format; also called F5-IgG1
Take B7: in assay [1], the “EC50 (read off the curve)” value is roughly 5 nM.

B8: anti-LAG-3 antibody clone F5 Fab (Fab, V domains shown)
VH: EVQLVQSGAEVKKPGASVKVSCKVSGYTLTELSMHWVRQTPGKGLEWMGGFDPEDGETIYAQKFQGRVTMTEDTSTDTAYMELSSLRSEDTAVYYCATTWFGELYYWGQGTLVTVSS
VL: ETTLTQSPGTLSLSPGERATLSCRASQSVSSGYLAWYQQKPGQAPRLLIYDASSRATGIPDRFSGSGSGADFTLTISRLQPEDFAVYYCQQYGSSRPGLTFGGGTRVEIK
With B8, in assay [3], the binding result was “no binding”. This molecule also displayed a concentration for half-maximal inhibition (IC50) in assay [4] of 3 nM.

B9: anti-LAG-3 antibody clone F5 (format not stated) (antibody, V domains shown)
VH: EVQLVQSGAEVKKPGASVKVSCKVSGYTLTELSMHWVRQTPGKGLEWMGGFDPEDGETIYAQKFQGRVTMTEDTSTDTAYMELSSLRSEDTAVYYCATTWFGELYYWGQGTLVTVSS
VL: ETTLTQSPGTLSLSPGERATLSCRASQSVSSGYLAWYQQKPGQAPRLLIYDASSRATGIPDRFSGSGSGADFTLTISRLQPEDFAVYYCQQYGSSRPGLTFGGGTRVEIK
notes: also called antibody F5
Molecule B9 yielded a Kd in assay [2] of 1.21 nM.

B10: anti-LAG-3 antibody clone F5 in IgG4 format (antibody, V domains shown)
VH: EVQLVQSGAEVKKPGASVKVSCKVSGYTLTELSMHWVRQTPGKGLEWMGGFDPEDGETIYAQKFQGRVTMTEDTSTDTAYMELSSLRSEDTAVYYCATTWFGELYYWGQGTLVTVSS
VL: ETTLTQSPGTLSLSPGERATLSCRASQSVSSGYLAWYQQKPGQAPRLLIYDASSRATGIPDRFSGSGSGADFTLTISRLQPEDFAVYYCQQYGSSRPGLTFGGGTRVEIK
notes: also called F5 IgG4
B10: the “EC50 (read off the curve)” value in assay [1] was roughly 3 nM.

B11: anti-LAG-3 antibody clone A6 in IgG1 format (antibody, V domains shown)
VH: EVQLVQSGAEVKKPGSSVKVSCKASGYTFTSYYMHWVRQAPGQGLEWMGIINPSGGSTSYAQKFQGRVTMTRDTSTSTVYMELSSLRSEDTAVYYCAMPFGDFDYWGQGTLVTVSS
VL: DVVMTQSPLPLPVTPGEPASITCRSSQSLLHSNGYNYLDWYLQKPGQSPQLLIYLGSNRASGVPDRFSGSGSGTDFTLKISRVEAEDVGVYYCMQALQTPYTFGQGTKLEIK
notes: also called A6 IgG1
For the molecule B11, the “EC50 (read off the curve)” value in assay [1] is roughly 0.7 nM.

B12: anti-LAG-3 antibody clone A6 in IgG4 format (antibody, V domains shown)
VH: EVQLVQSGAEVKKPGSSVKVSCKASGYTFTSYYMHWVRQAPGQGLEWMGIINPSGGSTSYAQKFQGRVTMTRDTSTSTVYMELSSLRSEDTAVYYCAMPFGDFDYWGQGTLVTVSS
VL: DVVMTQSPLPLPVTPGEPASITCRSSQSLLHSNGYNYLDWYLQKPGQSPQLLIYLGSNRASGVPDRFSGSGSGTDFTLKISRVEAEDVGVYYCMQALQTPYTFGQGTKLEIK
notes: also called A6 IgG4
B12: the “EC50 (read off the curve)” value in assay [1] is roughly 0.6 nM.

B13: anti-LAG-3 antibody clone A6 (format not stated) (antibody, V domains shown)
VH: EVQLVQSGAEVKKPGSSVKVSCKASGYTFTSYYMHWVRQAPGQGLEWMGIINPSGGSTSYAQKFQGRVTMTRDTSTSTVYMELSSLRSEDTAVYYCAMPFGDFDYWGQGTLVTVSS
VL: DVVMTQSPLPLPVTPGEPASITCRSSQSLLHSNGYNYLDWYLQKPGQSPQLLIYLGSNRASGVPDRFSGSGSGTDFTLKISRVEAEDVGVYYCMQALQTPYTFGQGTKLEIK
notes: also called antibody A6
Turning to B13, binding in assay [2] was characterised by a dissociation constant (Kd) of 1.25 nM.

B14: anti-LAG-3 antibody clone C12 Fab (Fab, V domains shown)
VH: QVQLVQSGAEVKKPGSSVKVSCKASGGTFSSYAISWVRQAPGQGLEWMGGIIPIFGTANYAQKFQGRVTITADESTSTAYMELSSLRSEDTAVYYCARALADFWSGYYYYYYMDVWGKGTTVTVSS
VL: DVVMTQSPLSLPVTPGEPASISCRSSQSLLHSDGYNYFDWYLQKPGQSPQLLIYLGSNRAAGVPDRFSGSGSGTDFTLKISRVEAEDVGVYYCMQGTHWPPTFGQGTKLEIK
For the molecule B14, in assay [3], the binding result is listed as “binds”. For the same molecule, the IC50 in assay [4] turned out to be 18 nM.

The values are drawn from patent US20190040136A1 (AGENCY FOR SCIENCE TECHNOLOGY AND RESEARCH, published 2019).
